{"source": "patent US20030064921A1", "about": "“Methods and compounds for modulating melanocortin receptor ligand binding and activity” (The Regents of the University of California, priority 1999, published 2003)", "molecules": {"B1": {"name": "AGRP: human AGRP is a 132 residue polypeptide (SEQ ID NO:1), natural antagonist of melanocortin receptors 3 and 4 (protein, listed as Homo sapiens)", "chain": "MLTAAVLSCALLLALPATRGAQMGLAPMEGIRRPDQALLPELPGLGLRAPLKKTTAEQAEEDLLQEAQALAEVLDLQDREPRSSRRCVRLHESCLGQQVPCCDPCATCYCRFFNAFCYCRKLGTAMNPCSRT"}, "B2": {"name": "mini-AGRP Ac-CVRLHESCLGQQVPCCDPAATCYCRFFNAFCYCR-NH2 (peptide)", "peptide": "Ac-CVRLHESCLGQQVPCCDPAATCYCRFFNAFCYCR-NH2", "modifications": "disulfide (positions not given here); not fully specified (bridges); printed as Ac-CVRLHESCLGQQVPCCDPAATCYCRFFNAFCYCR-NH2; also: four disulfide bonds, pairing not given here", "notes": "Fmoc solid-phase synthesis, folded under oxidizing conditions"}}, "key": {"[1]": {"molecular_target": "MC IR (Homo sapiens, UniProt Q01726)", "sequence (Q01726 whole entry)": "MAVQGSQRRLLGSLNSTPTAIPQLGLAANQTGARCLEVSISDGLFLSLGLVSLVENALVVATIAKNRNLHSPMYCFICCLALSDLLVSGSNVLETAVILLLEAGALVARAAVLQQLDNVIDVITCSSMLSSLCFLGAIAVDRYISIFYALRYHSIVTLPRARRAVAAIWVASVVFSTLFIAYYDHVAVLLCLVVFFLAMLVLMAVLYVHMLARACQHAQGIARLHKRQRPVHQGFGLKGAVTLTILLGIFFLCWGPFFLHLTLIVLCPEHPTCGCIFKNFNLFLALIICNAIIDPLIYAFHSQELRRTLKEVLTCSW", "experiment": "Displacement of NDP-MSH at melanocortin receptor (binding)", "protocol": "(§1) Suitable binding assays are well known to those of skill in the art. In a preferred embodiment, the binding assay is a competitive assay that measures the ability of the test composition to displace/compete a reference ligand from a melanocortin receptor. In one preferred approach specific binding of ligands of this invention to cells expressing the MC-3 receptor is determined by competition experiments using labeled (e.g. ^125I-labeled) Nle^4-D-Phe^7-α-MSH (NDP-MSH), as described in Tatro et al. (1990) Cancer Res. 50: 1237-1242).\n(§2) The mini-AGRP binding was tested by examining its ability to displace NDP-MSH, a well established high affinity MCR agonist. […] Antagonist activity was then determined using a cAMP assay."}, "[2]": {"molecular_target": "T1, MC3R (Homo sapiens, UniProt P41968)", "T1 sequence (P41968 whole entry)": "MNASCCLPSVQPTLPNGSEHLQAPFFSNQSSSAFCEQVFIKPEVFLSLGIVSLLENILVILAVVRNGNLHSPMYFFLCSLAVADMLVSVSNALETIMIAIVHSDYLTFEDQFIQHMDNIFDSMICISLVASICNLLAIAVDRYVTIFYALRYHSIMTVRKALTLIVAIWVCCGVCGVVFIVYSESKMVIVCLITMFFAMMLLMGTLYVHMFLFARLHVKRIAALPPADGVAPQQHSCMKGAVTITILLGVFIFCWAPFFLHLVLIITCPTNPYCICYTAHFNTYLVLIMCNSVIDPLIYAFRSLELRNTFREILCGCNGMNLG", "experiment": "Displacement of NDP-MSH at melanocortin receptor (binding)", "protocol": "as §1, §2"}, "[3]": {"molecular_target": "T2, MC4R (Homo sapiens, UniProt P32245)", "T2 sequence (P32245 whole entry)": "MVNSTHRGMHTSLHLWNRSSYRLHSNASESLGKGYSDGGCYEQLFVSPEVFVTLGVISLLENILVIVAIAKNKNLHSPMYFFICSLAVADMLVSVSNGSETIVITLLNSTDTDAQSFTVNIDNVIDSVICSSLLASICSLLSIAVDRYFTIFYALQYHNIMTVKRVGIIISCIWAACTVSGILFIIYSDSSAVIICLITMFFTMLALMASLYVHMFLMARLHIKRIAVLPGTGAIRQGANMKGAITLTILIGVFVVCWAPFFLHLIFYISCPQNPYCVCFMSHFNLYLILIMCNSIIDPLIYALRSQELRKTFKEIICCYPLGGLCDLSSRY", "experiment": "Displacement of NDP-MSH at melanocortin receptor (binding)", "protocol": "as §1, §2"}, "[4]": {"molecular_target": "MC5R (Homo sapiens, UniProt P33032)", "sequence (P33032 whole entry)": "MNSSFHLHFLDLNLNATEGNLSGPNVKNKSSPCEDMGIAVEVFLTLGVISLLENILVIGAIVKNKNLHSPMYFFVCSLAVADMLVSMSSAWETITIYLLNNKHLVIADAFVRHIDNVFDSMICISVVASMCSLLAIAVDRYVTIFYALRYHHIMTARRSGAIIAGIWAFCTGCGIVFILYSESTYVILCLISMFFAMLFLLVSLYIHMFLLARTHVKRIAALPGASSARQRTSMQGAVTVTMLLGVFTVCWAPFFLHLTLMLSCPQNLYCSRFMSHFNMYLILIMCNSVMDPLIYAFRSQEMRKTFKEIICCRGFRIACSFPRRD", "experiment": "Displacement of NDP-MSH at melanocortin receptor (binding)", "protocol": "as §1, §2"}, "[5]": {"molecular_target": "T1, MC3R", "experiment": "cAMP assay, suppression of α-MSH stimulated cAMP production", "type": "cell-based", "description": "(§3) Preferred assays measure, directly, or indirectly, melanocortin receptor induced changes in intracellular cAMP concentrations. One such assay measures the ability of cAMP to displace (8-^3H) cAMP from a high affinity cAMP binding protein (see Gilman (1979) Proc. Natl. Acad. Sci., USA, 67: 305-312). Briefly, test cells are exposed to the ligands to be screened. Following treatment, the cells are washed twice with phosphate buffered saline and intracellular cAMP extracted by lysing the cells with 1 mL of 60% ethanol. The assay is then run as described by Gilman, supra.).\nas §2"}, "[6]": {"molecular_target": "T2, MC4R", "experiment": "cAMP assay, suppression of α-MSH stimulated cAMP production", "type": "cell-based", "description": "as §3, §2"}, "[7]": {"molecular_target": "T3, human MC4r (Homo sapiens, UniProt P32245)", "T3 construct": "expressed in transfected cells; host or cells: HEK-293", "T3 sequence (P32245 whole entry)": "as the sequence (P32245 whole entry) above", "experiment": "Inhibition of NDP-MSH stimulated cAMP generation in HEK-293 cells transfected with human MC4r", "type": "cell-based", "conditions": "5.0×10^−6 M", "protocol": "Control experiments were performed with no MARP. […] Additional samples for HX experiments were prepared by lyophilization of protonated samples followed by reconstitution in 700 μl D2O.\nThis experiment measured inhibition of NDP-MSH stimulated cAMP generation in cells transfected with MC4r. A control experiment was conducted with no MARP present."}, "[8]": {"molecular_target": "T1, MC3R", "conditions": "versus agouti; cited from earlier work"}, "[9]": {"molecular_target": "T2, MC4R", "conditions": "versus agouti; cited from earlier work"}, "[10]": {"molecular_target": "T4, human melanocortin receptor 4 (human, UniProt P32245 1-332)", "T4 construct": "whole, on cells; also called MC4r; MC4R", "T4 sequence (P32245 whole entry)": "as above", "experiment": "displacement of NDP-MSH from the receptor"}}, "note": "Where no end group is shown, it is not given here."}
{"molecule": "Ac-CVRLHESCLGQQVPCCDPAATCYCRFFNAFCYCR-NH2 (disulfide (positions not given here); not fully specified (bridges); printed as Ac-CVRLHESCLGQQVPCCDPAATCYCRFFNAFCYCR-NH2) [mini-AGRP]", "values": [{"measurement": "displacement of NDP-MSH, potency compared with AGRP(87-132)", "setting": "[1]", "result": "potency equivalent to that of AGRP(87-132)"}, {"measurement": "displacement of NDP-MSH, potency compared with AGRP(87-132)", "setting": "[2]", "result": "potency equivalent to that of AGRP(87-132)"}, {"measurement": "displacement of NDP-MSH, potency compared with AGRP(87-132)", "setting": "[3]", "result": "potency equivalent to that of AGRP(87-132)"}, {"measurement": "displacement of NDP-MSH, potency compared with AGRP(87-132)", "setting": "[4]", "result": "potency equivalent to that of AGRP(87-132)"}, {"measurement": "antagonist activity: suppression of α-MSH stimulated cAMP production", "setting": "[5]", "result": "potent activity"}, {"measurement": "antagonist activity: suppression of α-MSH stimulated cAMP production", "setting": "[6]", "result": "potent activity"}]}
{"molecule": "MARP with Arg-25 to Ala substitution: MARP single mutant with Arg-25 replaced by Ala in the active loop, chemically synthesized (Ac-CVRLHESCLGQQVPCCDPCATCYCAFFNAFCYCRKLGTAMNPCSRT; disulfide (positions not given here))", "values": [{"measurement": "inhibition of NDP-MSH stimulated cAMP generation", "setting": "[7]", "result": "complete loss of inhibitory activity"}]}
{"molecule": "B1", "values": [{"measurement": "binding affinity greater than agouti", "setting": "[8]", "result": "approximately 100 fold"}, {"measurement": "binding affinity greater than agouti", "setting": "[9]", "result": "approximately 100 fold"}]}
{"molecule": "B2", "values": [{"measurement": "binding result", "setting": "[10]", "result": "binds"}]}
